Measured values from patent US7514408 (ELAN PHARMACEUTICALS, dated 2009).
Numbered stars: 1 amine (or outer) side, 2 acyl side, 3 side chain; on linkers, the order of the positions; unused ones are H or OH. Square brackets hold non-standard residues; d marks the D form. Ends that are not written are not given here. Ahppa(3S,4S) = O=C(C[C@H](O)[C@H](Cc1ccccc1)N[*:1])[*:2]; ACHPA = O=C(C[C@H](O)[C@H](CC1CCCCC1)N[*:1])[*:2]; Sta = CC(C)C[C@H](N)[C@@H](O)CC(=O)O; Phg = N[C@H](C(=O)O)c1ccccc1; Nle = CCCC[C@H](N)C(=O)O; norSta = nor-statine

biological target: T1, β-secretase (enzyme preparation not stated for the inhibitor assays) (human, UniProt P56817 46-501, limits assumed); test: cell-based or functional assay
T1 sequence (P56817 46-501 limits assumed): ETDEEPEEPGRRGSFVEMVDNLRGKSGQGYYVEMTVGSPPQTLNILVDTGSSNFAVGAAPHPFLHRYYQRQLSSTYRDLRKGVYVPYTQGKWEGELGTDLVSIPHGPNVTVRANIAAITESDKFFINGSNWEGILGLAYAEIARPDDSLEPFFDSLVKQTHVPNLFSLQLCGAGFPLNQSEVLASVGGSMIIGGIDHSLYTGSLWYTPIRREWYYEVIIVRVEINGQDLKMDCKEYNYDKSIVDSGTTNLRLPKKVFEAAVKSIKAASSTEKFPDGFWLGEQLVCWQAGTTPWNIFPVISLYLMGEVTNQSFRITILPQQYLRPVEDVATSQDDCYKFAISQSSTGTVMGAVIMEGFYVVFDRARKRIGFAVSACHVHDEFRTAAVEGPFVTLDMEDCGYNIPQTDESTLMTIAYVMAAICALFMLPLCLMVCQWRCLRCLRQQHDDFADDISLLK

| IC50 Group, MBP C125 assay (Group II: =1<10 µM) [µM] | IC50 Group, MBP C125 assay (Group I: IC50 of <µm [sic]) [µM] | Binder |
| --- | --- | --- |
| < 10 | – | Ac-VM[norSta]VAEF [heptamer peptide 7P (Ac-Val-Met-norSta-Val-Ala-Glu-Phe)] |
| – | < 1 | Ac-V[Nle][Sta]VAEF [heptamer peptide 7H (Ac-Val-nLeu-Sta-Val-Ala-Glu-Phe)] |
| < 10 | – | H-VM[ACHPA]VAEF [heptamer peptide 7Q ((NH2)Val-Met-acha-Val-Ala-Glu-Phe)] |
| < 10 | – | Ac-VF[Sta]VAEF [heptamer peptide 7J (Ac-Val-Phe-Sta-Val-Ala-Glu-Phe)] |
| – | < 1 | Ac-V[Phg][Sta]VAEF [heptamer peptide 7G (Ac-Val-Phg-Sta-Val-Ala-Glu-Phe)] |
| < 10 | – | Ac-VN[Sta]VAEF [heptamer peptide 7I (Ac-Val-Asn-Sta-Val-Ala-Glu-Phe)] |
| – | < 1 | Ac-VM[Ahppa(3S,4S)]VAEF [heptamer peptide 7O (Ac-Val-Met-pheSta-Val-Ala-Glu-Phe)] |
| – | < 1 | Ac-VM[Sta]VAEF [heptamer peptide 7B (Ac-Val-Met-Sta-Val-Ala-Glu-Phe)] |

biological target: T1, β-secretase (enzyme preparation not …); test: cell-based or functional assay; remark: another data set of the same source

| inhibitor potency relative to the valine substitution alone [times] | Binder |
| --- | --- |
| ~100 | KTEEISEVN[Sta]VAEF [P10-P4′staD→V] |
